# The nanobody polyreactivity screen of Harvey et al. (2022)
# Experiment: yeast display, Sf9 membrane polyspecificity reagent, FACS + sequencing; frameworks hold sequencing errors
# How it was run: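 After 36–48 hours of galactose induction, yeast (Saccharomyces cerevisiae BJ5465) displaying a synthetic nanobody library were stained at 4 °C for 1 hour with 10% biotinylated, detergent-solubilized Sf9 membrane reagent. Streptavidin microbeads enriched the stained cells before FACS sorting into low and high (top ~1%) gates on anti-HA and streptavidin fluorescence. Each clone's polyreactivity label reflects its gate of origin.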
row,Sequence,polyreactivity (PSR sort gate)
1,QVQLVESGGGLVQAGGSLRLSCAASGRTFALYAMAWYRQAPGKERELVASISWRGGSTYYADSVKGRFTISRDNAKNTVYLQMNSLKPEDTAVYYCAADTWSYGPLNYRLEYWGQGTQVTVSS,low polyreactivity
2,QVQLVESGGGFVQAGCSLRLSCGASGLTFKTYAMGWYSQARGKERELVAAMSGTGGGTYYADSVKGRFTISRDNAKKTVYLQMNSQKPEDTEVYYCAALHQAYRGFDYWGQGTQVTVSS,high polyreactivity
3,QVQLVESGGGLVQAGGSLRLSCAASGYIFAVYAMGWYIQAPGKEREFVAVITWRGGSTYYADSVKGRFTISRDNAKNTVYLHMNSLKPEDTAVYYCAADVYAQYDYWGQGTQVTVSS,high polyreactivity
4,QDQLVESGGGLVQAGGSLRLSCAASGFMFSYYAMGWYRQAPGKARELVAAMTSNGGITYYADSVKGRITISRDKAKNTVYLQMNSLKPEDTAVYYCNAYYTSTSYDYWGQGTQVTVSS,high polyreactivity
5,QVQLVESGGGLVQAGGSLRLSCAASGSIFFLYAMGWYRQAPGKEWELVAAISGGGGSTYYADSVKGRFTISRDNAKNTVYFQMNCLKPEDTAVYNSAARTRVTKREYDYWGQGTQVTVSS,high polyreactivity
6,QLQLQESGGGLVQAGGSLRLSCAWSGTIAFTRDLGSYRQAPGKDREFVASIDRGASTYYADSVKGRFTISRDNAKNTVYLQMNSLKPEDTAVYYRAVIAPFYSSFAYWGQGTQVTVSS,high polyreactivity
7,QVQLVESGGGLVQAGGSLRLSCAASGFTFSTYAMGWYRQAPGKERELVAAISGSGGRTYYADSVKGRFKISRDNAKNTVYLQMNSLKPEDTAVYYCAALTYSTVLGFDYWGQGTQVTVSS,high polyreactivity
8,QVQLVESGGGLVQAGGSLRLSCAASGSTFDPNAMGWYRQAPGKERELVAAITGRGGSTYYADSVKGRFTISRDTAKNTVYLQMNSLKPEDTAVYYCAAEYLGSIDTSYNYWGQGTQVTVSS,low polyreactivity
9,QVQLVESCGGLVQAGGSLRLSCAASGFIFFANTMGWYRQAPGKERELVAAITSDGSTYYADSVKGRFTISRDNAKNTVYLQMNSLKPEDTAVYYCNAQSNYADLAYWNDYWGQGTKVTVSS,low polyreactivity
10,QVQLVESGGGLVQAGGSLRLSCAASGRIFYPYAMGWSRQAPGKERELVAAISSSAGITYYADSVKGRFTISRDNAKKTVYLQMNSLKPEDTAVYYCAKYPVRNPYGYRYDYWGQGTQVTVSS,high polyreactivity
11,QVQLVESGGGLVQAGGSLRLSCAASGRTFFWYVMGWYRQAPGKERELVATISYGGITYYADSVKGRFTISRDNAKNTVYLQMNSLKPEETALYYCAAKPSRSLYYYWGQGTQVTVSS,high polyreactivity
12,QVQLVESGGGLVQAGGRLRLSCAASGFTFAYYAMGWYRQAPGKERELVAAIRWSGTRTYYADSVKGRFTISRDHAKNTVYLQMNSLKPEDTAVYYCAKGIWYGTSGYYYWGQGTQVTVSS,high polyreactivity
13,QVQLVESGGGLVQAGGTLRLSCAASGRIFVINTMGWYRQAPGKERELVAAISRGGSTNYADSLKGRFTISRDNAKNTVYLQMNSLKPEDTAVYYCAATGYILFAGGGYDYWGQGTQVTVSS,low polyreactivity
14,QVQLVESGGGLVQAGGSLRLSCAASGSTFYTYTMGWYRQAPGKERELVAAISSRGVSTYYADSVKGRFTISRDNAKNTVYLQMNSLKPEDTAVYYCAVSRIVDFGQKMYYWGQGTQVTVSS,high polyreactivity
15,QVQLVESWGGLVQAGGSLRLSCAASGRIFGYYAMGWSRQAPGKERELVAVISSGGSTYADSVKGRFTISRDNAKNTVYLQMNSLKPEDTAFYYCAARNYWSSYRTYRSRYDYWGQGTQVTVSS,high polyreactivity
16,QVQLVESGGGLVQAGGSRRLICAASGITFFAYTLGWYRQAPGKERELVASITGSSGGTYYADSVKGRFTISRDNAKNTVYLQMNSLKPEDTAVYYCATAYGRKLLLRGFYDQSHDMDYWGQGTQVTVSS,low polyreactivity
17,QVQLVESGGGLVQAGGSLRLTCAASGIYFTDYAMGWYRQAPGKERELVAAISGIGSTTYYADSVKGRFTISRDNAKNTVYLQMNSLKPEDTAVYYCNALLAYTYWYDYWGQGTQVSVSS,high polyreactivity
18,QVQLVESGGGLVQAGGSLRLSCAASGITFSYYAMGWYRKAARKERELVAAINGGGSRTYYADSVKGRFTISRDNAKNTVYLQMNSLKPEETAVYYCAAYSGQARGYDYWGQGTQVTVSS,high polyreactivity
19,QVQLVESGVGLVQAGGSLSLSCAASGRLFNYYAMGWYRQAPGKERELVAAISSSGGRTYYADSVKGRFTISRDNAKNTVYLQMNCLKPEDTAVFYCAAYDSLRYSTYDYWGQGTQVTVSS,high polyreactivity
20,QVQLVESGGGLVQAGGSLRLSCAASGITFSRYAMGWYRQAPGKERELVAAITARGGTTYYADSVKGRFTISRDNAKNTVYLQMNSLKPEDTAVYYCAAYKTYGSKYVFVDPGEYDYWGQGTQVTVSS,high polyreactivity
21,QVQLVESGGGLVQAGGSLRLSCAASGFIFRTYAMGWYRQAPGTERELVATITGDGSTNYADSVKGRFTISRDNAKNTVYLQMNSLKPEDTAVYYCSRDDRLAGDYWGQGTQVTVSS,low polyreactivity
22,QVQLVESGGGLVQAGGSLRLSCAASGRIFGYYAMGWYRQAPGKEREWVAAMSTNGGTTYYAYSVKGRFTISRDNAKNTVYLQMNSLKPEDTAVYYCAATYTVPGHARYDYWGQGTQVTVSS,low polyreactivity

row,Sequence,polyreactivity (PSR sort gate)
1,QVQLVESGGGLVQAGGSLRLSCAASGRIFSQYAMGWYRQAPGKARELVAAITKSGGSTYYADSVKGRFTISRDKAKNTVYLQMNSRKPEETAVYYCAKLRSSRDYDYWGQGTQVTVSS,high polyreactivity
2,QVQLVESRGGLVQAGGSLRLSCAASGRIFRYNAMGWDRQAPGKERELVAAITRSGGRTYYADSVKGRFTISRDNAKNTVYLQMNSLKPEDTAVYYCAADKYPSSPYVGDVDYWGQGTQVTVSS,high polyreactivity
3,QVQLGESGGGLVQAGGSLRLSCADSGFTFASNAMGWYRQAPAKERELVAAISTSGGSTYYADSVKGRFTISRDNAKNTVYLQMNSLKPEDTAVYYFAVAVNGVSRIKYYYWGQGTQVTVSS,high polyreactivity
4,QVQLVESGGGLVQAGGSLRLSCAASGITLYDNAMGWYRQAPGKERELVAAINVNDVSTYYADSVKGRFTISRDNAKNTVYLQKNSLKPEDTAVYYCAADSLYYGIGYWVVRYDYWGQGTQVTVSS,low polyreactivity
5,QVQLVESGGGLVQAGGSLRLSCAASGGILETNAMGWYRQAPGKERELVAAIDFSAGSTYYADSVKGRFTISRDNAKNTVYLQMNSLKPEDTAVYYCATRLGVLYDYWGQGTQVTVSS,low polyreactivity
6,QVQLVESGGGLVQAGGSLRLSCAASGYTFRYNAMGWYRQAPGKERELVAAISSSGGRTYYADSVKGRFTISRDYAKNTVYLQMNSLKPEDTAVYYCAADSSVKYWRYQAAYDYWGQGTQVTVSS,high polyreactivity
7,QVQLVESGGGLVQAGGSLRLSCAASGYISFGYAMGWYRQAPGKEREFVAAISVGGGTTYYADSVKGRFTISRDNAKNTVYLQMNSLKPEDTAVYYCAGRSYSYAPRRGYWGQGTQVTVSS,high polyreactivity
8,QVQLGESGGGLVQAGGSLRLSGAASGRTFNDYTMGWYRPAPGKERELVAAISSSGVLTYYADSVKGRFTISRDNAKYTVYLQMNSLKPEDTAVDYAKRAGYDRRWTYDYRGQGTQVTVSS,high polyreactivity
9,QVQLVESGGGLVQAGGSLRLSCAASGSTLKYYTMGWYRQAPGKERELVAAISWSGGRTYYADSVKGRFTISRDNAKNTVYLQMNSLKPEDTAVYYCNARRTFPRYDRKYESWGQGTQVTVSS,high polyreactivity
10,QVHLVESGGGLVQAGGSLRLSCAASGSIFVHYAMGWYRQAPGKERELVATISSSGGSTYYADSVKGRFTISRDNAKNTVYLQMKSLKPEDTAVYYCAADWTLDPSYGYYADDYWGQGTQVTVSS,low polyreactivity
11,QVQLVESGGGLVQAGGSLRLSCAASGSIFNIYAMGWYRQAPGKERELVAAIRWTGGSTYYADSVKGRFTISRDNAKNTVYLQMHSLKPEDTALYYSAARTSRGGHYYWGHGTQVTVSS,high polyreactivity
12,QVQLVESGGGLVQAGGSLRLSCAASGSTFYNYAMGWYRPAPGNERELVAAIDTGGSTNYADSVKGRFTISRDNAKNTVYFQMNSLKPEVTALDYCNTVYLYGTHDYWGQGTQVTVSS,low polyreactivity
13,QVQLVESGGGLVQAGGSLRLSCAASGRIFKSYVMGWYRQAPGKERELVAAISITGGSTYYADSVKGRFTISRDNAKNTVYLQMNSLKPEDTAVYYCAAEWFGSVQPAYDYWGQGTQVTVSS,high polyreactivity
14,QVQLVESGGGLVQAGGSLRLSCAASGRIFIRNAMGWYRQAPGKERELVAAITQSGGSTYYADSVKGRFTISRDNAKNTVYLQMNSLKPEDTAVYYCAADGDNPYLHEEDYWGQGTQVTVSS,high polyreactivity
15,QDQLVESGGGLVQAGGSLRLSCAPSGFILATNAMGWYRPAPGKERELVAAISYSCGSTNYADSVKGRFTISRDNAKNTVYLQMISLKPVDTAVYYCNDGGSVIWAWYGPVYSWGQGTQVTVSS,low polyreactivity
16,QVQLVESGGGLVQAGGSLRLSCAASGSIFTPYAMGWYRQAPGKERELVAAITQTGGITYYADSVKGRFTISRDNAKNTVYLQMNSLKPEDTAVYYCAADDYNPFSYSYGLEYWGQGTQVTVSS,low polyreactivity
17,QVQLVESGGGLVQAGGRLRLSCAASGRIFSKNAMGWYRQAPGKERELVAVISARGGNTYYADSVKGRFTISRDNAKNTVYLQMNSLKPEDTAVYYCNTPRPYEITTREYYYWGQGTQVTVSS,high polyreactivity
18,QVQLVESGGGLVQAGGSLRLSCAGSGSTFGRYAMGWYRQAPGKERELVAAITSDTGNTNYADSVKGRFTISRDNAKNTVYLQMNSLKPEDTAVYYCAAATFWVLWGHVIGNYDSWGQGTQVTVSS,low polyreactivity
19,QVQLVESGGGLVQAGGSLRLSCAASGRIIRYYVMGWYRQAPGKEREFVASISGRGASTYYADSVKGRFTISRDNAKNTVYLQMNSLKPEDTAVYYWNKESYFDTYRRYDSWGQGTQVTVSS,low polyreactivity
20,QVQLVESGGGLVQAGGSLRLSCAASGFIFFRYAMGWYRQAPGKERELVAAISRTGGRTYYADSVKGRFTISRDNAKNTVYLQMNSLKPEDTAVYYCAARRHSRVKYRDYWGQGTQVTVSS,high polyreactivity
21,QVQLVESGGGLVQAGGSLRLSCAASGFIIVRYAMGWYRQAPGKERELVASITKSGGSTYYADSVKGRFTISRDNAKNTVYLQMNSLKPEDTAVYYCAATVVSRTRYYYRGQRYDYWGQGTQVTVSS,high polyreactivity
